Assays:
Experiment in all cases: SPR
[1] = target: plasma-derived C4b (unfractionated) (human) (UniProt P0C0L4)
[2] = target: plasma-derived C3b (unfractionated) (human) (UniProt P01024)
[3] = target: His-tagged CSL040/LHR-ABC (human) (UniProt P17927)

| Substance | Kd [1] [nM] | Kd [2] [nM] | Kd [3] [nM] |
| --- | --- | --- | --- |
| LHR-AA (soluble human CR1 variant with two tandem LHR-A domains), untagged (from UniProt P17927 42-489; P17927 42-489) | 1540 |  |  |
| LHR-B (soluble human CR1 truncation), untagged (from UniProt P17927 490-939) (domain or fragment) | 1910 | 337 |  |
| plasma-derived C3b (unfractionated) (from UniProt P01024 749-1663; P01024 749-1663) (ligand) |  |  | 134 |
| plasma-derived C3b dimer (purified by size-exclusion chromatography) (from UniProt P01024 749-1663; P01024 749-1663) (complex) |  |  | 3.8 |

Other lines, results leading:

| Kd [1] [nM] | Kd [2] [nM] | Kd [3] [nM] | Substance |
| --- | --- | --- | --- |
| 1230 |  |  | LHR-A (soluble human CR1 truncation), untagged (from UniProt P17927 42-489) (domain or fragment) |
| 530 | 305 |  | LHR-AB (soluble human CR1 truncation), untagged (from UniProt P17927 42-939) (domain or fragment) |
| 581 | 78.2 |  | LHR-BC (soluble human CR1 truncation), untagged (from UniProt P17927 490-1392) (domain or fragment) |
